Data taken from the supplement of paper PMC5998384.

Tests used:
[1] = test system: HeLa Kyoto; assay: thermal stability score vs G1/S (z-score of summed log2 fold changes over temperatures); higher = more thermally stable than in G1/S
[2] = test system: HeLa Kyoto; assay: solubility change mitosis vs G1/S (difference of NP-40 vs SDS log2 ratios) (log2 ratio difference); higher = more soluble in mitosis
[3] = test system: HeLa Kyoto; assay: solubility in G1/S (NP-40 vs SDS abundance) (log2 ratio); higher = more soluble; conditions: cell cycle stage: G1/S
[4] = cell cycle stage: early G1 (4.5 h after nocodazole release)
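Throughout, for solubility change mitosis vs G1/S (difference of NP-40 vs SDS log2 ratios): synchronized HeLa Kyoto cells (double thymidine block for G1/S, nocodazole release for mitosis), protein amounts in NP-40 versus SDS lysates quantified by mass spectrometry, three biological replicates.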
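Throughout, for solubility in G1/S (NP-40 vs SDS abundance): HeLa Kyoto cells arrested at G1/S by double thymidine block, proteins quantified by TMT10plex mass spectrometry in mild NP-40 versus SDS extracts, three biological replicates.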
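Throughout, for thermal stability score vs G1/S (z-score of summed log2 fold changes over temperatures): synchronized HeLa Kyoto cells, proteins quantified by TMT10plex mass spectrometry, three biological replicates, mitosis taken 0.5 h after nocodazole release, G1/S directly after double thymidine block.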

Sequence | thermal stability score [1, 4] | thermal stability score ([1]; cell cycle stage: mitosis) | solubility change mitosis (log2) [2] | solubility in G1/S (log2) [3]
MDGLRQRVEHFLEQRNLVTEVLGALEAKTGVEKRYLAAGAVTLLSLYLLFGYGASLLCNLIGFVYPAYASIKAIESPSKDDDTVWLTYWVVYALFGLAEFFSDLLLSWFPFYYVGKCAFLLFCMAPRPWNGALMLYQRVVRPLFLRHHGAVDRIMNDLSGRALDAAAGITRNVLQVLARSRAGITPVAVAGPSTPLEADLKPSQTPQPKDK [REEP6] | 0.664 | -0.943 | -0.143 | -0.206
MDLDVVNMFVIAGGTLAIPILAFVASFLLWPSALIRIYYWYWRRTLGMQVRYVHHEDYQFCYSFRGRPGHKPSILMLHGFSAHKDMWLSVVKFLPKNLHLVCVDMPGHEGTTRSSLDDLSIDGQVKRIHQFVECLKLNKKPFHLVGTSMGGQVAGVYAAYYPSDVSSLCLVCPAGLQYSTDNQFVQRLKELQGSAAVEKIPLIPSTPEEMSEMLQLCSYVRFKVPQQILQGLVDVRIPHNNFYRKLFLEIVSEKSRYSLHQNMDKIKVPTQIIWGKQDQVLDVSGADMLAKSIANCQVELLENCGHSVVMERPRKTAKLIIDFLASVHNTDNNKKLD [ABHD6] | 0.51 | -0.118 | -0.0832 | -0.209
MDLPVDEWKSYLLQKWASLPTSVQVTISTAETLRDIFLHSSSLLQPEDELFLKRLSKGYLVGKDSDAPLFYREEGNKKFQEKDYTGAAVLYSKGVSHSRPNTEDMSLCHANRSAALFHLGQYETCLKDINRAQTHGYPERLQPKIMLRKAECLVALGRLQEASQTISDLERNFTATPALADVLPQTLQRNLHRLKMKMQEKDSLTESFPAALAKTLEDAALREENEQLSNASSSIGLCVDPLKGRCLVATKDILPGELLVQEDAFVSVLNPGELPPPHHGLDSKWDTRVTNGDLYCHRCLKHTLATVPCDGCSYAKYCSQECLQQAWELYHRTECPLGGLLLTLGVFCHIALRLTLLVGFEDVRKIITKLCDKISNKDICLPESNNQVKTLNYGLGESEKNGNIVETPIPGCDINGKYENNYNAVFNLLPHTENHSPEHKFLCALCVSALCRQLEAASLQAIPTERIVNSSQLKAAVTPELCPDVTIWGVAMLRHMLQLQCNAQAMTTIQHTGPKGSIVTDSRQVRLATGIFPVISLLNHSCSPNTSVSFISTVATIRASQRIRKGQEILHCYGPHKSRMGVAERQQKLRSQYFFDCACPACQTEAHRMAAGPRWEAFCCNSCGAPMQGDDVLRCGSRSCAESAVSRDHLVSRLQDLQQQVRVAQKLLRDGELERAVQRLSGCQRDAESFLWAEHAVVGEIADGLARACAALGDWQKSATHLQRSLYVVEVRHGPSSVEMGHELFKLAQIFFNGFAVPEALSTIQKAEEVLSLHCGPWDDEIQELQKMKSCLLDLPPTPVGPAL [SMYD4] | 0.716 | 0.631 | 0.000145 | -0.119
MDSSAVITQISKEEARGPLRGKGDQKSAASQKPRSRGILHSLFCCVCRDDGEALPAHSGAPLLVEENGAIPKQTPVQYLLPEAKAQDSDKICVVIDLDETLVHSSFKPVNNADFIIPVEIDGVVHQVYVLKRPHVDEFLQRMGELFECVLFTASLAKYADPVADLLDKWGAFRARLFRESCVFHRGNYVKDLSRLGRDLRRVLILDNSPASYVFHPDNAVPVASWFDNMSDTELHDLLPFFEQLSRVDDVYSVLRQPRPGS [CTDSP1] | 0.748 | 0.982 | -0.0207 | -0.148
MDTTAAAALPAFVALLLLSPWPLLGSAQGQFSAGGCTFDDGPGACDYHQDLYDDFEWVHVSAQEPHYLPPEMPQGSYMIVDSSDHDPGEKARLQLPTMKENDTHCIDFSYLLYSQKGLNPGTLNILVRVNKGPLANPIWNVTGFTGRDWLRAELAVSTFWPNEYQVIFEAEVSGGRSGYIAIDDIQVLSYPCDKSPHFLRLGDVEVNAGQNATFQCIATGRDAVHNKLWLQRRNGEDIPVAQTKNINHRRFAASFRLQEVTKTDQDLYRCVTQSERGSGVSNFAQLIVREPPRPIAPPQLLGVGPTYLLIQLNANSIIGDGPIILKEVEYRMTSGSWTETHAVNAPTYKLWHLDPDTEYEIRVLLTRPGEGGTGLPGPPLITRTKCAEPMRTPKTLKIAEIQARRIAVDWESLGYNITRCHTFNVTICYHYFRGHNESKADCLDMDPKAPQHVVNHLPPYTNVSLKMILTNPEGRKESEETIIQTDEDVPGPVPVKSLQGTSFENKIFLNWKEPLDPNGIITQYEISYSSIRSFDPAVPVAGPPQTVSNLWNSTHHVFMHLHPGTTYQFFIRASTVKGFGPATAINVTTNISAPTLPDYEGVDASLNETATTITVLLRPAQAKGAPISAYQIVVEELHPHRTKREAGAMECYQVPVTYQNAMSGGAPYYFAAELPPGNLPEPAPFTVGDNRTYQGFWNPPLAPRKGYNIYFQAMSSVEKETKTQCVRIATKAATEEPEVIPDPAKQTDRVVKIAGISAGILVFILLLLVVILIVKKSKLAKKRKDAMGNTRQEMTHMVNAMDRSYADQSTLHAEDPLSITFMDQHNFSPRYENHSATAESSRLLDVPRYLCEGTESPYQTGQLHPAIRVADLLQHINLMKTSDSYGFKEEYESFFEGQSASWDVAKKDQNRAKNRYGNIIAYDHSRVILQPVEDDPSSDYINANYIDGYQRPSHYIATQGPVHETVYDFWRMIWQEQSACIVMVTNLVEVGRVKCYKYWPDDTEVYGDFKVTCVEMEPLAEYVVRTFTLERRGYNEIREVKQFHFTGWPDHGVPYHATGLLSFIRRVKLSNPPSAGPIVVHCSAGAGRTGCYIVIDIMLDMAEREGVVDIYNCVKALRSRRINMVQTEEQYIFIHDAILEACLCGETAIPVCEFKAAYFDMIRIDSQTNSSHLKDEFQTLNSVTPRLQAEDCSIACLPRNHDKNRFMDMLPPDRCLPFLITIDGESSNYINAALMDSYRQPAAFIVTQYPLPNTVKDFWRLVYDYGCTSIVMLNEVDLSQGCPQYWPEEGMLRYGPIQVECMSCSMDCDVINRIFRICNLTRPQEGYLMVQQFQYLGWASHREVPGSKRSFLKLILQVEKWQEECEEGEGRTIIHCLNGGGRSGMFCAIGIVVEMVKRQNVVDVFHAVKTLRNSKPNMVEAPEQYRFCYDVALEYLESS [PTPRK] | 1.97 | 1.47 | -0.0752 | 0.0167
MDWQPDEQGLQQVLQLLKDSQSPNTATQRIVQDKLKQLNQFPDFNNYLIFVLTRLKSEDEPTRSLSGLILKNNVKAHYQSFPPPVADFIKQECLNNIGDASSLIRATIGILITTIASKGELQMWPELLPQLCNLLNSEDYNTCEGAFGALQKICEDSSELLDSDALNRPLNIMIPKFLQFFKHCSPKIRSHAIACVNQFIMDRAQALMDNIDTFIEHLFALAVDDDPEVRKNVCRALVMLLEVRIDRLIPHMHSIIQYMLQRTQDHDENVALEACEFWLTLAEQPICKEVLASHLVQLIPILVNGMKYSEIDIILLKGDVEEDEAVPDSEQDIKPRFHKSRTVTLPHEAERPDGSEDAEDDDDDDALSDWNLRKCSAAALDVLANVFREELLPHLLPLLKGLLFHPEWVVKESGILVLGAIAEGCMQGMVPYLPELIPHLIQCLSDKKALVRSIACWTLSRYAHWVVSQPPDMHLKPLMTELLKRILDGNKRVQEAACSAFATLEEEACTELVPYLSYILDTLVFAFGKYQHKNLLILYDAIGTLADSVGHHLNQPEYIQKLMPPLIQKWNELKDEDKDLFPLLECLSSVATALQSGFLPYCEPVYQRCVTLVQKTLAQAMMYTQHPEQYEAPDKDFMIVALDLLSGLAEGLGGHVEQLVARSNIMTLLFQCMQDSMPEVRQSSFALLGDLTKACFIHVKPCIAEFMPILGTNLNPEFISVCNNATWAIGEICMQMGAEMQPYVQMVLNNLVEIINRPNTPKTLLENTGRLTSPSAIPAITIGRLGYVCPQEVAPMLQQFIRPWCTSLRNIRDNEEKDSAFRGICMMIGVNPGGVVQDFIFFCDAVASWVSPKDDLRDMFYKILHGFKDQVGEDNWQQFSEQFPPLLKERLAAFYGV [TNPO2] | -0.161 | 0.756 | -0.263 | 0.0053
MECPVMETGSLFTSGIKRHLKDKRISKTTKLNVSLASKIKTKILNNSSIFKISLKHNNRALAQALSREKENSRRITTEKMLLQKEVEKLNFENTFLRLKLNNLNKKLIDIEALMNNNLITAIEMSSLSEFHQSSFLLSASKKKRISKQCKLMRLPFARVPLTSNDDEDEDKEKMQCDNNIKSKTLPDIPSSGSTTQPLSTQDNSEVLFLKENNQNVYGLDDSEHISSIVDVPPRESHSHSDQSSKTSLMSEMRNAQSIGRRWEKPSPSNVTERKKRGSSWESNNLSADTPCATVLDKQHISSPELNCNNEINGHTNETNTEMQRNKQDLPGLSSESAREPNAECMNQIEDNDDFQLQKTVYDADMDLTASEVSKIVTVSTGIKKKSNKKTNEHGMKTFRKVKDSSSEKKRERSKRQFKNSSDVDIGEKIENRTERSDVLDGKRGAEDPGFIFNNEQLAQMNEQLAQVNELKKMTLQTGFEQGDRENVLCNKKEKRITNEQEETYSLSQSSGKFHQESKFDKGQNSLTCNKSKASRQTFVIHKLEKDNLLPNQKDKVTIYENLDVTNEFHTANLSTKDNGNLCDYGTHNILDLKKYVTDIQPSEQNESNINKLRKKVNRKTEIISGMNHMYEDNDKDVVHGLKKGNFFFKTQEDKEPISENIEVSKELQIPALSTRDNENQCDYRTQNVLGLQKQITNMYPVQQNESKVNKKLRQKVNRKTEIISEVNHLDNDKSIEYTVKSHSLFLTQKDKEIIPGNLEDPSEFETPALSTKDSGNLYDSEIQNVLGVKHGHDMQPACQNDSKIGKKPRLNVCQKSEIIPETNQIYENDNKGVHDLEKDNFFSLTPKDKETISENLQVTNEFQTVDLLIKDNGNLCDYDTQNILELKKYVTDRKSAEQNESKINKLRNKVNWKTEIISEMNQIYEDNDKDAHVQESYTKDLDFKVNKSKQKLECQDIINKHYMEVNSNEKESCDQILDSYKVVKKRKKESSCKAKNILTKAKNKLASQLTESSQTSISLESDLKHITSEADSDPGNPVELCKTQKQSTTTLNKKDLPFVEEIKEGECQVKKVNKMTSKSKKRKTSIDPSPESHEVMERILDSVQGKSTVSEQADKENNLENEKMVKNKPDFYTKAFRSLSEIHSPNIQDSSFDSVREGLVPLSVSSGKNVIIKENFALECSPAFQVSDDEHEKMNKMKFKVNRRTQKSGIGDRPLQDLSNTSFVSNNTAESENKSEDLSSERTSRRRRCTPFYFKEPSLRDKMRR [SGOL2] | 0.746 | 2.18 | 0.191 | -0.383
MEDPSEPDRLASADGGSPEEEEDGEREPLLPRIAWAHPRRGAPGSAVRLLDAAGEEGEAGDEELPLPPGDVGVSRSSSAELDRSRPAVSVTIGTSEMNAFLDDPEFADIMLRAEQAIEVGIFPERISQGSSGSYFVKDPKRKIIGVFKPKSEEPYGQLNPKWTKYVHKVCCPCCFGRGCLIPNQGYLSEAGAYLVDNKLHLSIVPKTKVVWLVSETFNYNAIDRAKSRGKKYALEKVPKVGRKFHRIGLPPKIGSFQLFVEGYKEAEYWLRKFEADPLPENIRKQFQSQFERLVILDYIIRNTDRGNDNWLVRYEKQKCEKEIDHKESKWIDDEEFLIKIAAIDNGLAFPFKHPDEWRAYPFHWAWLPQAKVPFSEEIRNLILPYISDMNFVQDLCEDLYELFKTDKGFDKATFESQMSVMRGQILNLTQALRDGKSPFQLVQIPCVIVERSQGGSQGRIVHLSNSFTQTVNCRKPFFSSW [PI4K2B] | 0.385 | 0.874 | -0.206 | 0.198
MEEGKMDENEWGYHGEGNKSLVVAHAQRCVVLRFLKFPPNRKKTSEEIFQHLQNIVDFGKNVMKEFLGENYVHYGEVVQLPLEFVKQLCLKIQSERPESRCDKDLDTLSGYAMCLPNLTRLQTYRFAEHRPILCVEIKPKCGFIPFSSDVTHEMKHKVCRYCMHQHLKVATGKWKQISKYCPLDLYSGNKQRMHFALKSLLQEAQNNLKIFKNGELIYGCKDARSPVADWSELAHHLKPFFFPSNGLASGPHCTRAVIRELVHVITRVLLSGSDKGRAGTLSPGLGPQGPRVCEASPFSRSLRCQGKNTPERSGLPKGCLLYKTLQVQMLDLLDIEGLYPLYNRVERYLEEFPEERKTLQIDGPYDEAFYQKLLDLSTEDDGTVAFALTKVQQYRVAMTAKDCSIMIALSPCLQDASSDQRPVVPSSRSRFAFSVSVLDLDLKPYESIPHQYKLDGKIVNYYSKTVRAKDNAVMSTRFKESEDCTLVLHKV [IPPK] | 0.519 | 1.21 | -0.0236 | -0.275
